Test results reported in doi:10.1101/2021.05.06.443019.

Target: ovine rBAT (purified with b^0,+AT) (ovine)
Assay: cryo-EM structure

For “ovine rBAT (purified with b^0,+AT) (from UniProt A0ACI6R3A5 1-685) (natural protein)”, the stoichiometry N was 2.
